Assay [1] has as its target human CD28 (human, UniProt P10747). As to the kind of experiment: cell-based or functional assay.
Assay [2] addresses human CTLA-4 (human, UniProt P16410). Briefly: flow cytometry, CHO/CTLA4 cells; MFI over CD80 WT IgV-Fc.
Assay [3] has as its target human PD-L1 (human, UniProt Q9NZQ7). As to the kind of experiment: flow cytometry, CHO/PD-L1 cells; MFI over CD80 WT IgV-Fc.
Assay [4] deals with human CD28 (human, UniProt P10747). Briefly: flow cytometry, Jurkat cells (CD28); MFI over CD80 WT IgV-Fc.

B1: SIP 2: Variant CD80 IgV-GSG4S-Inert Fc (E35D, D46V, M47L, and V68M) (Fc fusion)
chain: VIHVTKEVKEVATLSCGHNVSVEELAQTRIYWQKDKKMVLTMMSGVLNIWPEYKNRTIFDITNNLSIMILALRPSDEGTYECVVLKYEKDAFKREHLAEVTLSVKADGSGGGGSEPKSSDKTHTCPPCPAPEAEGAPSVFLFPPKPKDTLMISRTPEVTCVVVDVSHEDPEVKFNWYVDGVEVHNAKTKPREEQYNSTYRVVSVLTVLHQDWLNGKEYKCKVSNKALPAPIEKTISKAKGQPREPQVYTLPPSRDELTKNQVSLTCLVKGFYPSDIAVEWESNGQPENNYKTTPPVLDSDGSFFLYSKLTVDKSRWQQGNVFSCSVMHEALHNHYTQKSLSLSPG
Turning to B1, in assay [1], the “CD28 costimulation EC50, Jurkat/IL-2 luciferase reporter; SIP 2 (Supernatant) from Donor 1 Pan T-cells” value was found to be 0.282 nM; the “CD28 costimulation EC50, Jurkat/IL-2 luciferase reporter; SIP 2 (Supernatant) from Donor 2 Pan T-cells” value was found to be 0.75 nM; the “CD28 costimulation EC50, Jurkat/IL-2 luciferase reporter; SIP 2 (Supernatant) from Jurkat cells” value was 0.75 nM.

B2: SIP 4: Variant CD80 IgV-GSG4S-Inert Fc (H18Y, A26P, E35D, M47I, V68M, and A71G) (Fc fusion)
chain: VIHVTKEVKEVATLSCGYNVSVEELPQTRIYWQKDKKMVLTMMSGDINIWPEYKNRTIFDITNNLSIMILGLRPSDEGTYECVVLKYEKDAFKREHLAEVTLSVKADGSGGGGSEPKSSDKTHTCPPCPAPEAEGAPSVFLFPPKPKDTLMISRTPEVTCVVVDVSHEDPEVKFNWYVDGVEVHNAKTKPREEQYNSTYRVVSVLTVLHQDWLNGKEYKCKVSNKALPAPIEKTISKAKGQPREPQVYTLPPSRDELTKNQVSLTCLVKGFYPSDIAVEWESNGQPENNYKTTPPVLDSDGSFFLYSKLTVDKSRWQQGNVFSCSVMHEALHNHYTQKSLSLSPG
In the case of B2, in assay [1], the “CD28 costimulation EC50, Jurkat/IL-2 luciferase reporter; SIP 4 (Supernatant) from Donor 1 Pan T-cells” value worked out at 0.153 nM; the “CD28 costimulation EC50, Jurkat/IL-2 luciferase reporter; SIP 4 (Supernatant) from Donor 2 Pan T-cells” value was 0.221 nM; the “CD28 costimulation EC50, Jurkat/IL-2 luciferase reporter; SIP 4 (Supernatant) from Jurkat cells” value is 0.221 nM.

B3: SIP 3: Variant CD80 IgV-GSG4S-Inert Fc (H18Y, E35D, M47V, V68M, and A71G) (Fc fusion)
chain: VIHVTKEVKEVATLSCGYNVSVEELAQTRIYWQKDKKMVLTMMSGDVNIWPEYKNRTIFDITNNLSIMILGLRPSDEGTYECVVLKYEKDAFKREHLAEVTLSVKADGSGGGGSEPKSSDKTHTCPPCPAPEAEGAPSVFLFPPKPKDTLMISRTPEVTCVVVDVSHEDPEVKFNWYVDGVEVHNAKTKPREEQYNSTYRVVSVLTVLHQDWLNGKEYKCKVSNKALPAPIEKTISKAKGQPREPQVYTLPPSRDELTKNQVSLTCLVKGFYPSDIAVEWESNGQPENNYKTTPPVLDSDGSFFLYSKLTVDKSRWQQGNVFSCSVMHEALHNHYTQKSLSLSPG
With B3, in assay [1], the “CD28 costimulation EC50, Jurkat/IL-2 luciferase reporter; SIP 3 (Supernatant) from Donor 1 Pan T-cells” value amounted to 0.294 nM; the “CD28 costimulation EC50, Jurkat/IL-2 luciferase reporter; SIP 3 (Supernatant) from Donor 2 Pan T-cells” value was found to be 0.961 nM; the “CD28 costimulation EC50, Jurkat/IL-2 luciferase reporter; SIP 3 (Supernatant) from Jurkat cells” value was 0.961 nM.

B4: CD80 E35D/M47V/N48K/V68M/K89N IgV-Fc, delta linker (Fc fusion)
chain: VIHVTKEVKEVATLSCGHNVSVEELAQTRIYWQKDKKMVLTMMSGDVKIWPEYKNRTIFDITNNLSIMILALRPSDEGTYECVVLKYENDAFKREHLAEVTLSVKTHTCPPCPAPEAEGAPSVFLFPPKPKDTLMISRTPEVTCVVVDVSHEDPEVKFNWYVDGVEVHNAKTKPREEQYNSTYRVVSVLTVLHQDWLNGKEYKCKVSNKALPAPIEKTISKAKGQPREPQVYTLPPSREEMTKNQVSLTCLVKGFYPSDIAVEWESNGQPENNYKTTPPVLDSDGSFFLYSKLTVDKSRWQQGNVFSCSVMHEALHNHYTQKSLSLSPG
In the case of B4, the “Fold change to WT CD80” value in assay [2] is 2.6 fold; in assay [3], 439 fold; in assay [4], 83.7 fold.

B5: CD80 E35D/D46V/M47L/V68M/L85Q/E88D IgV-Fc, delta linker (Fc fusion)
chain: VIHVTKEVKEVATLSCGHNVSVEELAQTRIYWQKDKKMVLTMMSGVLNIWPEYKNRTIFDITNNLSIMILALRPSDEGTYECVVQKYDKDAFKREHLAEVTLSVKTHTCPPCPAPEAEGAPSVFLFPPKPKDTLMISRTPEVTCVVVDVSHEDPEVKFNWYVDGVEVHNAKTKPREEQYNSTYRVVSVLTVLHQDWLNGKEYKCKVSNKALPAPIEKTISKAKGQPREPQVYTLPPSREEMTKNQVSLTCLVKGFYPSDIAVEWESNGQPENNYKTTPPVLDSDGSFFLYSKLTVDKSRWQQGNVFSCSVMHEALHNHYTQKSLSLSPG
For the molecule B5, the results for the “Fold change to WT CD80” value in assay [2], in assay [3] and in assay [4] were 10.2 fold, 484 fold and 74.7 fold, respectively.

The values are drawn from patent publication US20220177587A1 (Alpine Immune Sciences, Inc., published 2022).
